Columns and labels:
[1] = biological target: Full-length ROCK2 protein (human ROCK2 1–1388) (human) (UniProt O75116); test: SPR; Biacore X, CM5; full-length ROCK2 amine-coupled (1700 RU); analyte 7 µM with 100 µM MgATP (15-fold molar excess); HBS-EP pH 7.4, 10 µL/min
[2] = biological target: BACE1 cytoplasmic domain peptide (residues 479–501), N-terminally labelled with 5-FAM; test: fluorescence polarisation; direct titration: 50 nM fluorescein-labelled BACE1 peptide, dilution series of ROCK2; 20 mM Tris pH 8.0, 100 mM NaCl, 0.05% Brij35P, 2 mM DTT; 384-well plates

Full-length ROCK2 protein (human ROCK2 1–1388) (human), sequence (O75116 whole entry, the tested form may be a part): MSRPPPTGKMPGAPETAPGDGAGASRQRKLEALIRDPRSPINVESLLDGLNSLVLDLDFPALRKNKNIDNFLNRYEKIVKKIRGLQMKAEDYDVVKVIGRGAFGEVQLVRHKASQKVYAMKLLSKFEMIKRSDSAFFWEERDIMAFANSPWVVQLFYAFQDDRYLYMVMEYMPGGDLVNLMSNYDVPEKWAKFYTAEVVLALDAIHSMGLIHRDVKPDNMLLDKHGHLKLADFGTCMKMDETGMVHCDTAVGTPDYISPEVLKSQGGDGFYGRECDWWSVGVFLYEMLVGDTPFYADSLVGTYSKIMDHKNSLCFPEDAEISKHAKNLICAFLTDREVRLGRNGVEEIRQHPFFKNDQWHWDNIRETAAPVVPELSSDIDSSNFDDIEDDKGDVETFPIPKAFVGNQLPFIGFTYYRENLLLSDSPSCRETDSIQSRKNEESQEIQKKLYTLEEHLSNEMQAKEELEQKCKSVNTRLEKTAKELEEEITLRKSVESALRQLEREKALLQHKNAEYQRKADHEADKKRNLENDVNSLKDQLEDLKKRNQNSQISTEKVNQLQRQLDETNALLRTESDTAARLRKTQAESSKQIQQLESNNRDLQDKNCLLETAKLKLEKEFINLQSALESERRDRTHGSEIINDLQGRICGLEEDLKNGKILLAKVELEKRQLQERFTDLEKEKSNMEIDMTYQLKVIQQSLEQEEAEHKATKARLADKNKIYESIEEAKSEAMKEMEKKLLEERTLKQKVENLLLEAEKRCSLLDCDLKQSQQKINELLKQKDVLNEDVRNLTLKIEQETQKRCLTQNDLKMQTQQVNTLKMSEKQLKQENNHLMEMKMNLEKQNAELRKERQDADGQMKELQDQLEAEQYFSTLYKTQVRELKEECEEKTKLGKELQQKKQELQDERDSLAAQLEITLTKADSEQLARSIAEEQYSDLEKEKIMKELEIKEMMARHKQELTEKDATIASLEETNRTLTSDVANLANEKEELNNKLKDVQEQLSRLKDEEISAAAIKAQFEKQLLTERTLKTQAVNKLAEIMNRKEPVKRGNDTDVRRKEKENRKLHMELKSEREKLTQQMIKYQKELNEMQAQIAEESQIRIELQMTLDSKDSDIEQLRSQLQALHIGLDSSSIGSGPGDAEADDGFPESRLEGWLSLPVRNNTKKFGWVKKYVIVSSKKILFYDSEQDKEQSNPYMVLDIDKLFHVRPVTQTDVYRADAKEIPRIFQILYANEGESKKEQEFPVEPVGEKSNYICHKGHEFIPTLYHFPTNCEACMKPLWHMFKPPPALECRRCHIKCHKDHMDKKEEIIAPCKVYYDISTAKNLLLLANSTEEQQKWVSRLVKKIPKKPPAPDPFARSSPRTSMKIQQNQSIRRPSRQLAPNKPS
ROCK2 kinase domain (27–417) construct, sequence (O75116 27-417): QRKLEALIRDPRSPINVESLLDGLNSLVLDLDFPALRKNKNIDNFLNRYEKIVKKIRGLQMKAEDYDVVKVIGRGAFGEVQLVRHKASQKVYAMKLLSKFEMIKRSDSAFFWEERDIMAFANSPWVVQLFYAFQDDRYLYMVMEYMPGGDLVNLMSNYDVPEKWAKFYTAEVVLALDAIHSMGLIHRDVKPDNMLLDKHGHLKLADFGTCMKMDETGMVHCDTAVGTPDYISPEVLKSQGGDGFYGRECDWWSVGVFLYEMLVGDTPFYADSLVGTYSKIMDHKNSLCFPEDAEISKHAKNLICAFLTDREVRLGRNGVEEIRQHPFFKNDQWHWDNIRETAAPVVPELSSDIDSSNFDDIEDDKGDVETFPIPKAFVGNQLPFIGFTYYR
Full-length ROCK2 protein (human ROCK2 1–1388), sequence (O75116 whole entry): as the sequence (O75116 whole entry, the tested form may be a part) above

Substance	percent of the theoretical signal [1] [%]	response units [1] [RU]	Kd [2] [µM]
BACE1 cytoplasmic domain peptide (residues 479–501), free form	50	11	–
Full-length ROCK2 protein (human ROCK2 1–1388) (from UniProt O75116 1-1388) (enzyme)	–	–	18
ROCK2 kinase domain (27–417) construct (from UniProt O75116 27-417) (domain or fragment)	–	–	18
